Source: paper PMC12441119 (Cell Discovery, 2025)
Numbering of substitutions follows the chain as printed. Names and notes keep the numbering of the source.

T1: HOIP (residues 480–1072) (UniProt Q96EP0 480-1072)
T1 construct: source: E. coli BL21 (DE3), purified (glutathione resin, SEC)
T1 sequence (looked up): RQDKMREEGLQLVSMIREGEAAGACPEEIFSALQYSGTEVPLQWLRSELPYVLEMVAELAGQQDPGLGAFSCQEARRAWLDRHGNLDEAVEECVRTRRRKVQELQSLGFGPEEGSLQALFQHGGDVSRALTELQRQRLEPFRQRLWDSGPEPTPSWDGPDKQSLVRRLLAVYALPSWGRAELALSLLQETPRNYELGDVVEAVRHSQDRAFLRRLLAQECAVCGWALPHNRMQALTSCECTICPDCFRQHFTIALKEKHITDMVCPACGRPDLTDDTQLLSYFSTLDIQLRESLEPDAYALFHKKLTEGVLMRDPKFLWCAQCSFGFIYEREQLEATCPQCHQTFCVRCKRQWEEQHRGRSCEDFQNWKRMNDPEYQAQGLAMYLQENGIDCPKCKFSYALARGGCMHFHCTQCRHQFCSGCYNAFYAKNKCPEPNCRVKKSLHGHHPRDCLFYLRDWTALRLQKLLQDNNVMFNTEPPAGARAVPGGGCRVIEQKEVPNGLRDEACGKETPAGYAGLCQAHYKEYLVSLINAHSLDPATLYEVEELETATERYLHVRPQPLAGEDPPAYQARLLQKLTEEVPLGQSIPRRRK

B1: STK4 (residues 11–326) K59R (domain or fragment, human, UniProt Q13043 11-326, looked up)
chain: RRQLKKLDEDSLTKQPEEVFDVLEKLGEGSYGSVYKAIHKETGQIVAIRQVPVESDLQEIIKEISIMQQCDSPHVVKYYGSYFKNTDLWIVMEYCGAGSVSDIIRLRNKTLTEDEIATILQSTLKGLEYLHFMRKIHRDIKAGNILLNTEGHAKLADFGVAGQLTDTMAKRNTVIGTPFWMAPEVIQEIGYNCVADIWSLGITAIEMAEGKPPYADIHPMRAIFMIPTNPPPTFRKPELWSDNFTDFVKQCLVKSPEQRATATQLLQHPFVRSAKGVSILRDLINEAMDVKLKRQESQQREVDQDDEENSEEDEMD
notes: Monomer-dimer equilibrium in solution; dimer in the crystal; also called STK4 KD; source: E. coli BL21 (DE3), purified (Ni-NTA, SEC)
B2: STK4 (residues 1–326) K59R (domain or fragment, human, UniProt Q13043 1-326, looked up)
chain: METVQLRNPPRRQLKKLDEDSLTKQPEEVFDVLEKLGEGSYGSVYKAIHKETGQIVAIRQVPVESDLQEIIKEISIMQQCDSPHVVKYYGSYFKNTDLWIVMEYCGAGSVSDIIRLRNKTLTEDEIATILQSTLKGLEYLHFMRKIHRDIKAGNILLNTEGHAKLADFGVAGQLTDTMAKRNTVIGTPFWMAPEVIQEIGYNCVADIWSLGITAIEMAEGKPPYADIHPMRAIFMIPTNPPPTFRKPELWSDNFTDFVKQCLVKSPEQRATATQLLQHPFVRSAKGVSILRDLINEAMDVKLKRQESQQREVDQDDEENSEEDEMD
notes: also called KD; source: E. coli BL21 (DE3), purified (Ni-NTA, SEC)
B3: HOIP (residues 697–1072) S1066E (domain or fragment, UniProt Q96EP0 697-1072, looked up)
chain: QECAVCGWALPHNRMQALTSCECTICPDCFRQHFTIALKEKHITDMVCPACGRPDLTDDTQLLSYFSTLDIQLRESLEPDAYALFHKKLTEGVLMRDPKFLWCAQCSFGFIYEREQLEATCPQCHQTFCVRCKRQWEEQHRGRSCEDFQNWKRMNDPEYQAQGLAMYLQENGIDCPKCKFSYALARGGCMHFHCTQCRHQFCSGCYNAFYAKNKCPEPNCRVKKSLHGHHPRDCLFYLRDWTALRLQKLLQDNNVMFNTEPPAGARAVPGGGCRVIEQKEVPNGLRDEACGKETPAGYAGLCQAHYKEYLVSLINAHSLDPATLYEVEELETATERYLHVRPQPLAGEDPPAYQARLLQKLTEEVPLGQEIPRRRK
notes: also called phosphomimic S1066E mutant; source: E. coli BL21 (DE3), purified
B4: HOIP (residues 697–1072) (domain or fragment, UniProt Q96EP0 697-1072, looked up)
chain: B3 chain with E370S
notes: also called RING1-IBR-RING2-LDD; HOIP RBR-LDD; source: E. coli BL21 (DE3), purified (glutathione resin, SEC)
B5: STK4 (residues 1–487) K59R (enzyme, human, UniProt Q13043 1-487, looked up)
chain: METVQLRNPPRRQLKKLDEDSLTKQPEEVFDVLEKLGEGSYGSVYKAIHKETGQIVAIRQVPVESDLQEIIKEISIMQQCDSPHVVKYYGSYFKNTDLWIVMEYCGAGSVSDIIRLRNKTLTEDEIATILQSTLKGLEYLHFMRKIHRDIKAGNILLNTEGHAKLADFGVAGQLTDTMAKRNTVIGTPFWMAPEVIQEIGYNCVADIWSLGITAIEMAEGKPPYADIHPMRAIFMIPTNPPPTFRKPELWSDNFTDFVKQCLVKSPEQRATATQLLQHPFVRSAKGVSILRDLINEAMDVKLKRQESQQREVDQDDEENSEEDEMDSGTMVRAVGDEMGTVRVASTMTDGANTMIEHDDTLPSQLGTMVINAEDEEEEGTMKRRDETMQPAKPSFLEYFEQKEKENQINSFGKSVPGPLKNSSDWKIPQDGDYEFLKSWTVEDLQKRLLALDPMMEQEIEEIRQKYQSKRQPILDAIEAKKRRQQNF
notes: The tag could be cut by HRV 3C protease 'if desired'; also called kinase-dead full-length STK4; MST1; source: E. coli BL21 (DE3), purified (Ni-NTA, SEC)
B6: HOIP (residues 697–852) (domain or fragment, UniProt Q96EP0 697-852, looked up)
chain: QECAVCGWALPHNRMQALTSCECTICPDCFRQHFTIALKEKHITDMVCPACGRPDLTDDTQLLSYFSTLDIQLRESLEPDAYALFHKKLTEGVLMRDPKFLWCAQCSFGFIYEREQLEATCPQCHQTFCVRCKRQWEEQHRGRSCEDFQNWKRMND
notes: The limits are printed for the M1-8Ub experiment; for the STK4 experiment the text says only 'the RING1-IBR region of HOIP'; also called HOIP RING1-IBR; RING1-IBR region; source: E. coli BL21 (DE3), purified (glutathione resin, SEC)
B7: HOIP RING1 (residues 697–793) T731A (domain or fragment, UniProt Q96EP0 697-793, looked up)
chain: QECAVCGWALPHNRMQALTSCECTICPDCFRQHFAIALKEKHITDMVCPACGRPDLTDDTQLLSYFSTLDIQLRESLEPDAYALFHKKLTEGVLMRD
notes: source: E. coli BL21 (DE3), purified

Experiments:
[1] = biological target: the molecule itself; assay: AUC; sedimentation velocity, 42,000 rpm, 20 °C, c(s) distribution (SEDFIT); mixtures of HOIP RING2-LDD with STK4 KD at molar ratios 1:1 or 1:5
HOIP (residues 697–1072) = biological target: B4; assay: SEC; each protein alone and the mixture at matched concentrations on Superdex 200 Increase 10/300 GL or Superdex 75 Increase 10/300 GL; a forward shift or increase of the peak read qualitatively; fractions on SDS-PAGE (Fig. 1c: 20 μM HOIP RING2-LDD, 30 μM STK4 KD, Superdex 75 Increase); details: both partners purified
linear di-Ub (M1-2Ub) = biological target: T2, linear di-Ub (M1-2Ub) (UniProt P0CG48 1-76; P0CG48 1-76); assay: as above; details: both partners purified
T2 construct: ubiquitin, unit 1 of 2, units joined head to tail by peptide bonds (M1-linked); ubiquitin, unit 2 of 2; source: E. coli BL21 (DE3), purified

linear tetra-Ub (M1-4Ub) = biological target: T3, linear tetra-Ub (M1-4Ub) (UniProt P0CG48 1-76; P0CG48 1-76; P0CG48 1-76; P0CG48 1-76); assay: as above; details: both partners purified
T3 construct: ubiquitin, unit 1 of 4, units joined head to tail by peptide bonds (M1-linked); ubiquitin, unit 2 of 4; ubiquitin, unit 3 of 4; ubiquitin, unit 4 of 4; source: E. coli BL21 (DE3), purified

[2] = biological target: B5; assay: ITC; MicroCal PEAQ-ITC, 25 °C; 20 mM Tris-HCl pH 7.5, 100 mM NaCl, 1 mM DTT; ~50 μM in the cell, ~500 μM in the syringe; one-site binding model; details: both partners purified
HOIP (residues 480–1072) = biological target: T1, HOIP (residues 480–1072); assay: SEC; each protein alone and the mixture at matched concentrations on Superdex 200 Increase 10/300 GL or Superdex 75 Increase 10/300 GL; a forward shift or increase of the peak read qualitatively; fractions on SDS-PAGE (Fig. 1c: 20 μM HOIP RING2-LDD, 30 μM STK4 KD, Superdex 75 Increase); details: both partners purified
M1-8Ub = biological target: T4, M1-8Ub (UniProt P0CG48 1-76; P0CG48 1-76; P0CG48 1-76; P0CG48 1-76; P0CG48 1-76; P0CG48 1-76; …); assay: as above; details: both partners purified
T4 construct: ubiquitin, unit 1 of 8, units joined head to tail by peptide bonds (M1-linked); ubiquitin, unit 2 of 8; ubiquitin, unit 3 of 8; ubiquitin, unit 4 of 8; ubiquitin, unit 5 of 8; ubiquitin, unit 6 of 8; ubiquitin, unit 7 of 8; ubiquitin, unit 8 of 8; also called linear octa-ubiquitin; polyubiquitin chain; source: E. coli BL21 (DE3), purified

UBE2L3 = biological target: T5, UBE2L3 (human, UniProt P68036 1-154); assay: as above; details: both partners purified
T5 construct: UBE2L3 (E2), human; source: E. coli, purified
T5 sequence (P68036 whole entry): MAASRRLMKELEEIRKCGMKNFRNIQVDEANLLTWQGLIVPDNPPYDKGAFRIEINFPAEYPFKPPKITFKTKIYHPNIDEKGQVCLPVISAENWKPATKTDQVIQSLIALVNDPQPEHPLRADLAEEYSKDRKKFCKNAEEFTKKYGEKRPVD

Binder: B1
binding result [1]: binds

Binder: B2
binding result (HOIP (residues 697–1072)): binds

Binder: B3
binding result (linear di-Ub (M1-2Ub)): binds
binding result (linear tetra-Ub (M1-4Ub)): binds

Binder: B4
Kd [2]: ~102 µM

Binder: B5
binding result (HOIP (residues 480–1072)): binds

Binder: B6
binding result (M1-8Ub): binds

Binder: B7
binding result (UBE2L3): binds
